Assay results: paper PMC5445526
Each block holds one substance with its values, some of them ahead of it.

What was measured:
(GB1)2-AXB [1] = experiment: SDS-PAGE with gel densitometry
(GB1)2-AXB [2] = experiment: MALDI-TOF mass spectrometry
(GB1)2-AXB [3] = experiment: SEC + other: SDS-PAGE with gel densitometry
(GB1)2-AXB [4] = experiment: SEC
(GB1)2-BXA [5] = experiment: SDS-PAGE with gel densitometry
(GB1)2-BXA [6] = experiment: MALDI-TOF mass spectrometry
(GB1)2-BXA [7] = experiment: SEC + other: SDS-PAGE with gel densitometry
(GB1)2-BXA [8] = experiment: SEC
AXB-(GB1)2 [9] = experiment: SDS-PAGE with gel densitometry
AXB-(GB1)2 [10] = experiment: MALDI-TOF mass spectrometry
AXB-(GB1)2 [11] = experiment: SEC + other: SDS-PAGE with gel densitometry
AXB-(GB1)2 [12] = experiment: SEC
BXA-(GB1)2 [13] = experiment: SDS-PAGE with gel densitometry
BXA-(GB1)2 [14] = experiment: MALDI-TOF mass spectrometry
BXA-(GB1)2 [15] = experiment: SEC + other: SDS-PAGE with gel densitometry
BXA-(GB1)2 [16] = experiment: SEC

dimer content by SDS-PAGE densitometry (%) ((GB1)2-AXB [1]): 93% | stoichiometry N ((GB1)2-AXB [2]): 2 | overall catenation efficiency (%) ((GB1)2-AXB [3]): 73% | stoichiometry N ((GB1)2-AXB [4]): 2
Substance: (GB1)2-AXB
dimer content by SEC (%) (SEC): 78%

dimer content by SDS-PAGE densitometry (%) ((GB1)2-BXA [5]): 83% | stoichiometry N ((GB1)2-BXA [6]): 2 | overall catenation efficiency (%) ((GB1)2-BXA [7]): 76% | stoichiometry N ((GB1)2-BXA [8]): 2
Substance: (GB1)2-BXA
dimer content by SEC (%) (SEC): 92%

dimer content by SDS-PAGE densitometry (%) (AXB-(GB1)2 [9]): 80% | stoichiometry N (AXB-(GB1)2 [10]): 2 | overall catenation efficiency (%) (AXB-(GB1)2 [11]): 66% | stoichiometry N (AXB-(GB1)2 [12]): 2
Substance: AXB-(GB1)2
dimer content by SEC (%) (SEC): 82%

dimer content by SDS-PAGE densitometry (%) (BXA-(GB1)2 [13]): 86% | stoichiometry N (BXA-(GB1)2 [14]): 2 | overall catenation efficiency (%) (BXA-(GB1)2 [15]): 83% | stoichiometry N (BXA-(GB1)2 [16]): 2
Substance: BXA-(GB1)2
dimer content by SEC (%) (SEC): 97%
